PMC12102759 (2025)

B1: AMOTL2 peptide 64-79 (Angiomotin-like protein 2), 16-mer library wild type / TNKS ANK (TNKS 12 ANK repeats, residues 174-649) (parent complex)
chain 1: QVLQQATRQEPQGQEH
chain 2: TGVPAVSGALRELLEACRNGDVSRVKRLVDAANVNAKDMAGRKSSPLHFAAGFGRKDVVEHLLQMGANVHARDDGGLIPLHNACSFGHAEVVSLLLCQGADPNARDNWNYTPLHEAAIKGKIDVCIVLLQHGADPNIRNTDGKSALDLADPSAKAVLTGEYKKDELLEAARSGNEEKLMALLTPLNVNCHASDGRKSTPLHLAAGYNRVRIVQLLLQHGADVHAKDKGGLVPLHNACSYGHYEVTELLLKHGACVNAMDLWQFTPLHEAASKNRVEVCSLLLSHGADPTLVNCHGKSAVDMAPTPELRERLTYEFKGHSLLQAAREADLAKVKKTLALEIINFKQPQSHETALHCAVASLHPKRKQVTELLLRKGANVNEKNKDFMTPLHVAAERAHNDVMEVLHKHGAKMNALDTLGQTALHRAALAGHLQTCRLLLSYGSDPSIISLQGFTAAQMGNEAVQQILSESTPIRTSD

Variants of: B1
Assay: proteomic peptide phage display deep mutational scan (ProP-PD DMS): M13 P8 16-mer library selected against immobilised GST-tagged bait for four days (rounds), NGS of the eluted pools per day and pseudo-replica; bait immobilised on MaxiSorp plates (10 µg), library pre-cleared on GST, 2 h binding at 4 °C, five washes; one round per day, days 1-4; value from days 2 and 3
For chain 1 Q4H, the screen value was 0.000314 average fractional NGS count over selection days 2 and 3 (reads of this peptide / all reads for the bait, averaged over ….
In the case of chain 1 Q4Y, the screen value is reported as 0.00141 average fractional NGS count over selection days 2 and 3 (reads of this peptide / all reads for the bait, averaged over ….
In the case of chain 1 Q4W, the screen value is reported as 0.000181 average fractional NGS count over selection days 2 and 3 (reads of this peptide / all reads for the bait, averaged over ….
chain 1 Q4M was tested, and the screen value was 0.000805 average fractional NGS count over selection days 2 and 3 (reads of this peptide / all reads for the bait, averaged over ….
With chain 1 Q4S the screen value was 0.000703 average fractional NGS count over selection days 2 and 3 (reads of this peptide / all reads for the bait, averaged over ….
With chain 1 Q4A the screen value was 0.00355 average fractional NGS count over selection days 2 and 3 (reads of this peptide / all reads for the bait, averaged over ….
For chain 1 Q4R, the screen value was 0.000203 average fractional NGS count over selection days 2 and 3 (reads of this peptide / all reads for the bait, averaged over ….
In the case of chain 1 Q4T, the screen value is reported as 0.0012 average fractional NGS count over selection days 2 and 3 (reads of this peptide / all reads for the bait, averaged over ….
With chain 1 A6S the screen value was 0.000255 average fractional NGS count over selection days 2 and 3 (reads of this peptide / all reads for the bait, averaged over ….
chain 1 A6R was tested, and the screen value was 0.000251 average fractional NGS count over selection days 2 and 3 (reads of this peptide / all reads for the bait, averaged over ….
For chain 1 A6V, the screen value was 0.0104 average fractional NGS count over selection days 2 and 3 (reads of this peptide / all reads for the bait, averaged over ….
In the case of chain 1 A6N, the screen value is reported as 0.000341 average fractional NGS count over selection days 2 and 3 (reads of this peptide / all reads for the bait, averaged over ….
With chain 1 A6E the screen value was 0.000304 average fractional NGS count over selection days 2 and 3 (reads of this peptide / all reads for the bait, averaged over ….
With chain 1 V2R the screen value was 0.000931 average fractional NGS count over selection days 2 and 3 (reads of this peptide / all reads for the bait, averaged over ….
For chain 1 V2E, the screen value was 0.00192 average fractional NGS count over selection days 2 and 3 (reads of this peptide / all reads for the bait, averaged over ….
With chain 1 V2I the screen value was 0.0014 average fractional NGS count over selection days 2 and 3 (reads of this peptide / all reads for the bait, averaged over ….
In the case of chain 1 V2S, the screen value is reported as 0.000464 average fractional NGS count over selection days 2 and 3 (reads of this peptide / all reads for the bait, averaged over ….
For chain 1 V2T, the screen value was 0.00555 average fractional NGS count over selection days 2 and 3 (reads of this peptide / all reads for the bait, averaged over ….
chain 1 L3T was tested, and the screen value was 0.00246 average fractional NGS count over selection days 2 and 3 (reads of this peptide / all reads for the bait, averaged over ….
In the case of chain 1 L3S, the screen value is reported as 0.000145 average fractional NGS count over selection days 2 and 3 (reads of this peptide / all reads for the bait, averaged over ….
For chain 1 L3V, the screen value was 0.00036 average fractional NGS count over selection days 2 and 3 (reads of this peptide / all reads for the bait, averaged over ….
For chain 1 L3Y, the screen value was 0.000502 average fractional NGS count over selection days 2 and 3 (reads of this peptide / all reads for the bait, averaged over ….
With chain 1 L3H the screen value was 0.00318 average fractional NGS count over selection days 2 and 3 (reads of this peptide / all reads for the bait, averaged over ….
In the case of chain 1 L3G, the screen value is reported as 0.000399 average fractional NGS count over selection days 2 and 3 (reads of this peptide / all reads for the bait, averaged over ….
chain 1 L3R was tested, and the screen value was 0.000319 average fractional NGS count over selection days 2 and 3 (reads of this peptide / all reads for the bait, averaged over ….
In the case of chain 1 L3A, the screen value is reported as 0.000396 average fractional NGS count over selection days 2 and 3 (reads of this peptide / all reads for the bait, averaged over ….
chain 1 L3E was tested, and the screen value was 0.00384 average fractional NGS count over selection days 2 and 3 (reads of this peptide / all reads for the bait, averaged over ….
In the case of chain 1 T7A, the screen value is reported as 0.000494 average fractional NGS count over selection days 2 and 3 (reads of this peptide / all reads for the bait, averaged over ….
chain 1 T7Q was tested, and the screen value was 0.000226 average fractional NGS count over selection days 2 and 3 (reads of this peptide / all reads for the bait, averaged over ….
For chain 1 T7V, the screen value was 0.00296 average fractional NGS count over selection days 2 and 3 (reads of this peptide / all reads for the bait, averaged over ….
In the case of chain 1 T7N, the screen value is reported as 0.00127 average fractional NGS count over selection days 2 and 3 (reads of this peptide / all reads for the bait, averaged over ….
With chain 1 Q9F the screen value was 0.000243 average fractional NGS count over selection days 2 and 3 (reads of this peptide / all reads for the bait, averaged over ….
With chain 1 Q9H the screen value was 0.000266 average fractional NGS count over selection days 2 and 3 (reads of this peptide / all reads for the bait, averaged over ….
For chain 1 Q9T, the screen value was 0.000851 average fractional NGS count over selection days 2 and 3 (reads of this peptide / all reads for the bait, averaged over ….
For chain 1 Q9Y, the screen value was 0.000466 average fractional NGS count over selection days 2 and 3 (reads of this peptide / all reads for the bait, averaged over ….
In the case of chain 1 Q9M, the screen value is reported as 0.000331 average fractional NGS count over selection days 2 and 3 (reads of this peptide / all reads for the bait, averaged over ….
In the case of chain 1 Q9P, the screen value is reported as 0.00216 average fractional NGS count over selection days 2 and 3 (reads of this peptide / all reads for the bait, averaged over ….
With chain 1 Q9L the screen value was 0.000942 average fractional NGS count over selection days 2 and 3 (reads of this peptide / all reads for the bait, averaged over ….
For chain 1 Q9E, the screen value was 0.000877 average fractional NGS count over selection days 2 and 3 (reads of this peptide / all reads for the bait, averaged over ….
In the case of chain 1 Q14K, the screen value is reported as 0.000473 average fractional NGS count over selection days 2 and 3 (reads of this peptide / all reads for the bait, averaged over ….
For chain 1 Q14Y, the screen value was 0.000143 average fractional NGS count over selection days 2 and 3 (reads of this peptide / all reads for the bait, averaged over ….
In the case of chain 1 Q14V, the screen value is reported as 0.000381 average fractional NGS count over selection days 2 and 3 (reads of this peptide / all reads for the bait, averaged over ….
In the case of chain 1 Q14R, the screen value is reported as 0.0014 average fractional NGS count over selection days 2 and 3 (reads of this peptide / all reads for the bait, averaged over ….
For chain 1 Q14L, the screen value was 0.000371 average fractional NGS count over selection days 2 and 3 (reads of this peptide / all reads for the bait, averaged over ….
chain 1 H16A was tested, and the screen value was 0.00111 average fractional NGS count over selection days 2 and 3 (reads of this peptide / all reads for the bait, averaged over ….
chain 1 H16M was tested, and the screen value was 0.0005 average fractional NGS count over selection days 2 and 3 (reads of this peptide / all reads for the bait, averaged over ….
chain 1 H16P was tested, and the screen value was 0.000313 average fractional NGS count over selection days 2 and 3 (reads of this peptide / all reads for the bait, averaged over ….
chain 1 H16I was tested, and the screen value was 0.000704 average fractional NGS count over selection days 2 and 3 (reads of this peptide / all reads for the bait, averaged over ….
In the case of chain 1 H16Y, the screen value is reported as 0.00033 average fractional NGS count over selection days 2 and 3 (reads of this peptide / all reads for the bait, averaged over ….
In the case of chain 1 Q5T, the screen value is reported as 0.00669 average fractional NGS count over selection days 2 and 3 (reads of this peptide / all reads for the bait, averaged over ….
In the case of chain 1 Q5Y, the screen value is reported as 0.000959 average fractional NGS count over selection days 2 and 3 (reads of this peptide / all reads for the bait, averaged over ….
For chain 1 Q5S, the screen value was 0.00183 average fractional NGS count over selection days 2 and 3 (reads of this peptide / all reads for the bait, averaged over ….
With chain 1 Q5M the screen value was 0.000456 average fractional NGS count over selection days 2 and 3 (reads of this peptide / all reads for the bait, averaged over ….
In the case of chain 1 Q5A, the screen value is reported as 0.000657 average fractional NGS count over selection days 2 and 3 (reads of this peptide / all reads for the bait, averaged over ….
In the case of chain 1 Q5L, the screen value is reported as 0.00018 average fractional NGS count over selection days 2 and 3 (reads of this peptide / all reads for the bait, averaged over ….
With chain 1 Q5R the screen value was 0.000183 average fractional NGS count over selection days 2 and 3 (reads of this peptide / all reads for the bait, averaged over ….
chain 1 Q5P was tested, and the screen value was 0.000503 average fractional NGS count over selection days 2 and 3 (reads of this peptide / all reads for the bait, averaged over ….
With chain 1 E10G the screen value was 0.00177 average fractional NGS count over selection days 2 and 3 (reads of this peptide / all reads for the bait, averaged over ….
For chain 1 E10I, the screen value was 0.000303 average fractional NGS count over selection days 2 and 3 (reads of this peptide / all reads for the bait, averaged over ….
In the case of chain 1 E10L, the screen value is reported as 0.000172 average fractional NGS count over selection days 2 and 3 (reads of this peptide / all reads for the bait, averaged over ….
For chain 1 E10A, the screen value was 0.00157 average fractional NGS count over selection days 2 and 3 (reads of this peptide / all reads for the bait, averaged over ….
In the case of chain 1 E10N, the screen value is reported as 0.000822 average fractional NGS count over selection days 2 and 3 (reads of this peptide / all reads for the bait, averaged over ….
In the case of chain 1 E10F, the screen value is reported as 0.000339 average fractional NGS count over selection days 2 and 3 (reads of this peptide / all reads for the bait, averaged over ….
For chain 1 E10Y, the screen value was 0.00125 average fractional NGS count over selection days 2 and 3 (reads of this peptide / all reads for the bait, averaged over ….
chain 1 E10Q was tested, and the screen value was 0.000624 average fractional NGS count over selection days 2 and 3 (reads of this peptide / all reads for the bait, averaged over ….
With chain 1 E10K the screen value was 0.000435 average fractional NGS count over selection days 2 and 3 (reads of this peptide / all reads for the bait, averaged over ….
chain 1 P11T was tested, and the screen value was 0.00762 average fractional NGS count over selection days 2 and 3 (reads of this peptide / all reads for the bait, averaged over ….
With chain 1 P11A the screen value was 0.000173 average fractional NGS count over selection days 2 and 3 (reads of this peptide / all reads for the bait, averaged over ….
In the case of chain 1 P11V, the screen value is reported as 0.000173 average fractional NGS count over selection days 2 and 3 (reads of this peptide / all reads for the bait, averaged over ….
With chain 1 E15W the screen value was 0.00103 average fractional NGS count over selection days 2 and 3 (reads of this peptide / all reads for the bait, averaged over ….
chain 1 E15P was tested, and the screen value was 0.000133 average fractional NGS count over selection days 2 and 3 (reads of this peptide / all reads for the bait, averaged over ….
In the case of chain 1 E15D, the screen value is reported as 0.000568 average fractional NGS count over selection days 2 and 3 (reads of this peptide / all reads for the bait, averaged over ….
chain 1 Q12F was tested, and the screen value was 0.00125 average fractional NGS count over selection days 2 and 3 (reads of this peptide / all reads for the bait, averaged over ….
In the case of chain 1 Q12W, the screen value is reported as 0.000556 average fractional NGS count over selection days 2 and 3 (reads of this peptide / all reads for the bait, averaged over ….
In the case of chain 1 Q12H, the screen value is reported as 0.000111 average fractional NGS count over selection days 2 and 3 (reads of this peptide / all reads for the bait, averaged over ….
